Laboratory results: article PMC6566107, “Molecular Analysis of Protein-Protein Interactions in the Ethylene Pathway in the Different Ethylene Receptor Subfamilies” (Frontiers in Plant Science, 2019)
Where “and” joins values, the source holds several entries; their conditions need not be identical. Identical values can stand only once.

T1: Isolated transmembrane domain of AtETR1 (aa 1-157) with C4S and C6S (Arabidopsis thaliana, UniProt P49333 1-157, C4S | C6S)
T1 sequence: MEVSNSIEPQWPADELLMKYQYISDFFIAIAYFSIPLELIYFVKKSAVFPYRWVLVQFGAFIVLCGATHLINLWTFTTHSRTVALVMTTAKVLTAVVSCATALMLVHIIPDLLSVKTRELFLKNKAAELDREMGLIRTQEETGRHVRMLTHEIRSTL

T2: Arabidopsis thaliana EIN2 C-terminus (AtEIN2 479-1294), soluble cytosolic domain (Arabidopsis thaliana, UniProt Q9S814 479-1294, Alexa Fluor 488 succinimidyl-ester label where used as the labeled partner in MST)
T2 construct: source: recombinant, expressed and purified as previously described (Bisson et al., 2016)
T2 sequence (looked up): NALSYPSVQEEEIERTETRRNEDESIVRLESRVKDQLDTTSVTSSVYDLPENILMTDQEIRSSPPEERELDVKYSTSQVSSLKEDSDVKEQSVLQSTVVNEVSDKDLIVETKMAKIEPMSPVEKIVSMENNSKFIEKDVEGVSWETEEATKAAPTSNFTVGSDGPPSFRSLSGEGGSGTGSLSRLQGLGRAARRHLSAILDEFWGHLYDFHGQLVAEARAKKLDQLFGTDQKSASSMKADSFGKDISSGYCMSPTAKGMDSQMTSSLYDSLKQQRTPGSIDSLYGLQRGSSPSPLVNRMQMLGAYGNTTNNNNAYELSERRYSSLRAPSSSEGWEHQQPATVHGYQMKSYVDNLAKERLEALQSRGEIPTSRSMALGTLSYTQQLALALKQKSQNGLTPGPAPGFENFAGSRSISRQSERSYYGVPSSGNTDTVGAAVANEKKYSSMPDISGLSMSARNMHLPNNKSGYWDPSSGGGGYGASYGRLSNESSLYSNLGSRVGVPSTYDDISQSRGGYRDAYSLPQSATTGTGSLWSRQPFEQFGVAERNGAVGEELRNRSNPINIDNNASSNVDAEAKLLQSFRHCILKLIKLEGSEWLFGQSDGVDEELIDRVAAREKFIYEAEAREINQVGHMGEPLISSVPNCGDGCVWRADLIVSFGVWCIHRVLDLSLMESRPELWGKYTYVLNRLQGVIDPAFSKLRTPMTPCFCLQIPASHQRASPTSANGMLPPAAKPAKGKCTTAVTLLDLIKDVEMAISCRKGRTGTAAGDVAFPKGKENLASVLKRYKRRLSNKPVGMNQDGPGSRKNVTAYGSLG

T3: Arabidopsis thaliana Raf-like protein kinase CTR1 (AtCTR1), full-length, fused to mCerulean (Arabidopsis thaliana, UniProt Q05609 1-821, Alexa Fluor 488 succinimidyl-ester label)
T3 construct: CONSTITUTIVE TRIPLE RESPONSE 1 (CTR1), Arabidopsis thaliana, UniProt Q05609, full-length cDNA according to NCBI NM_120454.4; The CTR1 coding region was extended by mCerulean in pET30a; source: E. coli BL21 (DE3) with pRARE, purified (Ni-NTA)
T3 sequence (looked up): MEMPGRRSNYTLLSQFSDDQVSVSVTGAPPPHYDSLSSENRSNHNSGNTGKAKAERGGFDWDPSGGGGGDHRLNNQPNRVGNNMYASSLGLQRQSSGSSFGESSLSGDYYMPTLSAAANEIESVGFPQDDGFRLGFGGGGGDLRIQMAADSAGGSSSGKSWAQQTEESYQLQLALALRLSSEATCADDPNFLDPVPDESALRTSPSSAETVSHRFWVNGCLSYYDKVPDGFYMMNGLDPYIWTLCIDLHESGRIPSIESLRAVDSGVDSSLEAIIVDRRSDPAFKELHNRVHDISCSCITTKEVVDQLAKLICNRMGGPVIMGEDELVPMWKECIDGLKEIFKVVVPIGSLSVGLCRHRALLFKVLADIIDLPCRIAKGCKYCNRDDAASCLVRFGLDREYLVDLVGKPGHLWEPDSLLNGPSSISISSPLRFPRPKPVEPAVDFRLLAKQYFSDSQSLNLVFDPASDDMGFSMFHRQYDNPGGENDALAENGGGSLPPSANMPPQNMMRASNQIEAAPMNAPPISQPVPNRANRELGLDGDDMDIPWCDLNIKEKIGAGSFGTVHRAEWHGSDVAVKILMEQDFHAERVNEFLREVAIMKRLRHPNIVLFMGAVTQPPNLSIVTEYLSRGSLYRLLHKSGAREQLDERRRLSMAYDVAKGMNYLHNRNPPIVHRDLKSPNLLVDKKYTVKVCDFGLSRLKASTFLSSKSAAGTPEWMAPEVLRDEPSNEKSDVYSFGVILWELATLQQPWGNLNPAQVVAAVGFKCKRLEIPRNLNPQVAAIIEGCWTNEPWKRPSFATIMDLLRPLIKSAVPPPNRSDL

B1: Arabidopsis thaliana ethylene receptor ETR2 (AtETR2), full-length, type-II subfamily (receptor, UniProt Q0WPQ2 1-773, looked up)
chain: MVKEIASWLLILSMVVFVSPVLAINGGGYPRCNCEDEGNSFWSTENILETQRVSDFLIAVAYFSIPIELLYFVSCSNVPFKWVLFEFIAFIVLCGMTHLLHGWTYSAHPFRLMMAFTVFKMLTALVSCATAITLITLIPLLLKVKVREFMLKKKAHELGREVGLILIKKETGFHVRMLTQEIRKSLDRHTILYTTLVELSKTLGLQNCAVWMPNDGGTEMDLTHELRGRGGYGGCSVSMEDLDVVRIRESDEVNVLSVDSSIARASGGGGDVSEIGAVAAIRMPMLRVSDFNGELSYAILVCVLPGGTPRDWTYQEIEIVKVVADQVTVALDHAAVLEESQLMREKLAEQNRALQMAKRDALRASQARNAFQKTMSEGMRRPMHSILGLLSMIQDEKLSDEQKMIVDTMVKTGNVMSNLVGDSMDVPDGRFGTEMKPFSLHRTIHEAACMARCLCLCNGIRFLVDAEKSLPDNVVGDERRVFQVILHIVGSLVKPRKRQEGSSLMFKVLKERGSLDRSDHRWAAWRSPASSADGDVYIRFEMNVENDDSSSQSFASVSSRDQEVGDVRFSGGYGLGQDLSFGVCKKVVQLIHGNISVVPGSDGSPETMSLLLRFRRRPSISVHGSSESPAPDHHAHPHSNSLLRGLQVLLVDTNDSNRAVTRKLLEKLGCDVTAVSSGFDCLTAIAPGSSSPSTSFQVVVLDLQMAEMDGYEVAMRIRSRSWPLIVATTVSLDEEMWDKCAQIGINGVVRKPVVLRAMESELRRVLLQADQLL
modifications: Alexa Fluor 488 succinimidyl-ester label where used as the labeled partner in MST
notes: ETR2, Arabidopsis thaliana, UniProt Q0WPQ2, full-length, codon optimized cDNA according to NCBI NM_113216.3; The thrombin site of pGEX-4T-1 was changed to a TEV site (ENLYFQG); No cleavage is described; The purified protein runs at an apparent 120 kDa, so GST is probably still attached; The same construct was used with and without the Alexa Fluor 488 label; source: E. coli C43 (DE3), solubilised …
B2: Arabidopsis thaliana ethylene receptor ETR1 (AtETR1), full-length, type-I subfamily (receptor, UniProt P49333 1-738, looked up)
chain: MEVCNCIEPQWPADELLMKYQYISDFFIAIAYFSIPLELIYFVKKSAVFPYRWVLVQFGAFIVLCGATHLINLWTFTTHSRTVALVMTTAKVLTAVVSCATALMLVHIIPDLLSVKTRELFLKNKAAELDREMGLIRTQEETGRHVRMLTHEIRSTLDRHTILKTTLVELGRTLALEECALWMPTRTGLELQLSYTLRHQHPVEYTVPIQLPVINQVFGTSRAVKISPNSPVARLRPVSGKYMLGEVVAVRVPLLHLSNFQINDWPELSTKRYALMVLMLPSDSARQWHVHELELVEVVADQVAVALSHAAILEESMRARDLLMEQNVALDLARREAETAIRARNDFLAVMNHEMRTPMHAIIALSSLLQETELTPEQRLMVETILKSSNLLATLMNDVLDLSRLEDGSLQLELGTFNLHTLFREVLNLIKPIAVVKKLPITLNLAPDLPEFVVGDEKRLMQIILNIVGNAVKFSKQGSISVTALVTKSDTRAADFFVVPTGSHFYLRVKVKDSGAGINPQDIPKIFTKFAQTQSLATRSSGGSGLGLAISKRFVNLMEGNIWIESDGLGKGCTAIFDVKLGISERSNESKQSGIPKVPAIPRHSNFTGLKVLVMDENGVSRMVTKGLLVHLGCEVTTVSSNEECLRVVSHEHKVVFMDVCMPGVENYQIALRIHEKFTKQRHQRPLLVALSGNTDKSTKEKCMSFGLDGVLLKPVSLDNIRDVLSDLLEPRVLYEGM
modifications: Alexa Fluor 488 succinimidyl-ester label where used as the labeled partner in MST
notes: ETR1, Arabidopsis thaliana, full-length receptor; source: recombinant, expressed and purified as described in Milić et al., 2018, in FosCholine-16

Legend:
[1] = biological target: T1, Isolated transmembrane domain of AtETR1 …; assay: MST; ETR2 Alexa488-labeled
[2] = biological target: T2, Arabidopsis thaliana EIN2 C-terminus …; assay: MST; 75 nM Alexa Fluor 488-labeled AtEIN2 479-1294; unlabeled AtETR2 titrated 4 µM to 1.95 nM; ambient temperature; 60% MST power; 1:1 model; apparent Kd; conditions: both partners purified
[3] = biological target: the molecule itself; assay: MST; 40 nM Alexa Fluor 488-labeled receptor (AtETR1 or AtETR2); unlabeled AtETR1 or AtETR2 (4 µM to 0.49 nM) or ETR1-TM C4SC6S (16 µM to 0.98 nM) titrated; 0.0075% (w/v) FosCholine-16; 60% MST power; 1:1 model
[4] = biological target: T3, Arabidopsis thaliana Raf-like protein …; assay: MST; Alexa Fluor 488-labeled AtCTR1 (MST buffer 3; 50 nM with AtETR1, 20 nM with AtETR2); unlabeled receptors (MST buffer 2) titrated 4 µM to 0.98 nM; 60% MST power; premium capillaries and 10 min incubation for AtETR2; 1:1 model; conditions: both partners purified
[5] = biological target: T2, Arabidopsis thaliana EIN2 C-terminus …; assay: MST; 20 nM Alexa Fluor 488-labeled AtETR2 (MST buffer 1: 50 mM HEPES/NaOH pH 7.8, 300 mM NaCl, 5% glycerol, 0.015% FosCholine-16); unlabeled AtEIN2 479-1294 (MST buffer 3) titrated 2 µM to 0.98 nM; 20% MST power; 1:1 model; apparent Kd; conditions: both partners purified
[6] = biological target: T1, Isolated transmembrane domain of AtETR1 …; assay: MST; ETR1 Alexa488-labeled
[7] = biological target: B1; assay: MST; 40 nM Alexa Fluor 488-labeled receptor (AtETR1 or AtETR2); unlabeled AtETR1 or AtETR2 (4 µM to 0.49 nM) or ETR1-TM C4SC6S (16 µM to 0.98 nM) titrated; 0.0075% (w/v) FosCholine-16; 60% MST power; 1:1 model; conditions: both partners purified

Binder	Kd [1] [nM]	Kd [2] [nM]	Kd [3] [nM]	Kd [4] [nM]	Kd [5] [nM]	Kd [6] [nM]	Kd [7]
B1	145	147	96	165	161		
B2			326	169		491	177 nM and 217 nM
